Target: the molecule itself
Assay: cryo-EM structure; Dr-VSP (C302S) in MSP2N2 lipid nanodiscs (Dr-VSP:MSP2N2:lipid 1:4:400), 20 mM Tris, 150 mM NaCl, 5 mM EGTA, pH 8, 5.6 mg/ml; class of particles with the cytoplasmic domain as a dimer, 3.0 Å

B1: Danio rerio voltage-sensing phosphatase (Dr-VSP) with the active site cysteine mutated to serine (C302S) (enzyme, UniProt Q4V9E4 1-511, looked up)
chain: MTSVHFNPGLDSKEVNGNSVKEEAEVQIDDGKEETKDPDTMYHQVRKKITPFVMSFGFRVFGLVLIILDIIMVIVDLSLSEKSRDVGGAPETVSLVISFFFLIDVLLRVYVEGFKVYFSSKLNIVDACIVVITLVVTMIYAFSDFSGASLIPRVVTFLRSLRILILVRIFRLASQKRELEKVTRRMVSENKRRYQKDGFDLDLTYVTERVIAMSFPSSGKQALYRNPIREVVRFLDTKHMDHYKVFNLCSEKGYDPKFFHYRVERVMIDDHNVPSLDDMLRYTACVRDWMAADSRNVIAIHSKGGKGRTGTMVCTWLIDSDQFESAQESLDYFGERRTDKSMSSKFQGVETPSQSRYVGYYEIMKNQYNRQLPPRKSLKIKSIRIHSIAGVGKGNGSDLKLKIIVKHELVFQCVCAKQHNCTVFPDTGSNAVVISLQDGPIVTGDVKVMFESSAGLPKGYEDCPFYFWFNTSFVENYRLFLSREELDNPHKPKTWDIYKEDFGVTLSFTEP
notes: Danio rerio voltage-sensing phosphatase (Dr-VSP), full-length construct in a modified pPICZ-B vector, with C302S; only the cytoplasmic domain is resolved in the dimer map; The methods name the full-length Dr-VSP construct; also called Dr-VSP (C302S); Danio rerio VSP C302S; not shown: eGFP, C-terminal, cleaved; His10, C-terminal, cleaved
Q: With B1 as the protein, how does the “stoichiometry N” value read?
A: 2

Reference: PMC11289409, “Coupling sensor to enzyme in the voltage sensing phosphatase” (Nature Communications, 2024)
